T1: ParB 65-139 (RHH domain) (Leifsonia xyli subsp. cynodontis …, UniProt Q6EEF9 65-139)
T1 sequence: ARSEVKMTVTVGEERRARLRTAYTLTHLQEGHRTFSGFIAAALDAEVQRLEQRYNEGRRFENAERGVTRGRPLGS

B1: R3-18-13C (dsDNA)
DNA 1: GGAATAGGTGGACAAGCC
DNA 2: GGCTTGTCCACCTATTCC
B2: R3-18-11A (dsDNA)
DNA 1: GGAATAGGTGAAAAAGCC
DNA 2: GGCTTTTTCACCTATTCC
B3: R3-18-7C (dsDNA)
DNA 1: GGAATACGTGGAAAAGCC
DNA 2: GGCTTTTCCACGTATTCC
B4: R3-18-16A (dsDNA)
DNA 1: GGAATAGGTGGAAAAACC
DNA 2: GGTTTTTCCACCTATTCC
B5: R3-18-18T (dsDNA)
DNA 1: GGAATAGGTGGAAAAGCT
DNA 2: AGCTTTTCCACCTATTCC
B6: R3-18-16T (dsDNA)
DNA 1: GGAATAGGTGGAAAATCC
DNA 2: GGATTTTCCACCTATTCC
B7: R3-18-11C (dsDNA)
DNA 1: GGAATAGGTGCAAAAGCC
DNA 2: GGCTTTTGCACCTATTCC
B8: R8-18 (dsDNA)
DNA 1: GGAAAAGCTGGAATTGTT
DNA 2: AACAATTCCAGCTTTTCC
B9: R3-18-17T (dsDNA)
DNA 1: GGAATAGGTGGAAAAGTC
DNA 2: GACTTTTCCACCTATTCC
B10: R3-18-9G (dsDNA)
DNA 1: GGAATAGGGGGAAAAGCC
DNA 2: GGCTTTTCCCCCTATTCC
B11: R4-14 (dsDNA)
DNA 1: AAAAGCCAGAAACA
DNA 2: TGTTTCTGGCTTTT
B12: R3-18-15G (dsDNA)
DNA 1: GGAATAGGTGGAAAGGCC
DNA 2: GGCCTTTCCACCTATTCC
B13: R3-18-12T (dsDNA)
DNA 1: GGAATAGGTGGTAAAGCC
DNA 2: GGCTTTACCACCTATTCC
B14: R3-18-8C (dsDNA)
DNA 1: GGAATAGCTGGAAAAGCC
DNA 2: GGCTTTTCCAGCTATTCC
B15: R3-18-14T (dsDNA)
DNA 1: GGAATAGGTGGAATAGCC
DNA 2: GGCTATTCCACCTATTCC
B16: R3-18-8T (dsDNA)
DNA 1: GGAATAGTTGGAAAAGCC
DNA 2: GGCTTTTCCAACTATTCC
B17: R3-18-12C (dsDNA)
DNA 1: GGAATAGGTGGCAAAGCC
DNA 2: GGCTTTGCCACCTATTCC
B18: R3-18-17G (dsDNA)
DNA 1: GGAATAGGTGGAAAAGGC
DNA 2: GCCTTTTCCACCTATTCC
B19: R3-18-15T (dsDNA)
DNA 1: GGAATAGGTGGAAATGCC
DNA 2: GGCATTTCCACCTATTCC
B20: R3-18-13T (dsDNA)
DNA 1: GGAATAGGTGGATAAGCC
DNA 2: GGCTTATCCACCTATTCC
B21: R3-18-13G (dsDNA)
DNA 1: GGAATAGGTGGAGAAGCC
DNA 2: GGCTTCTCCACCTATTCC
B22: R3-18-9A (dsDNA)
DNA 1: GGAATAGGAGGAAAAGCC
DNA 2: GGCTTTTCCTCCTATTCC
B23: R3-18-14C (dsDNA)
DNA 1: GGAATAGGTGGAACAGCC
DNA 2: GGCTGTTCCACCTATTCC
B24: R3-18-9C (dsDNA)
DNA 1: GGAATAGGCGGAAAAGCC
DNA 2: GGCTTTTCCGCCTATTCC
B25: R3-18-16C (dsDNA)
DNA 1: GGAATAGGTGGAAAACCC
DNA 2: GGGTTTTCCACCTATTCC
B26: R3-18-10T (dsDNA)
DNA 1: GGAATAGGTTGAAAAGCC
DNA 2: GGCTTTTCAACCTATTCC
B27: R3-18-17A (dsDNA)
DNA 1: GGAATAGGTGGAAAAGAC
DNA 2: GTCTTTTCCACCTATTCC
B28: R3-18-12G (dsDNA)
DNA 1: GGAATAGGTGGGAAAGCC
DNA 2: GGCTTTCCCACCTATTCC
B29: R3-18-15C (dsDNA)
DNA 1: GGAATAGGTGGAAACGCC
DNA 2: GGCGTTTCCACCTATTCC
B30: R3-18-18G (dsDNA)
DNA 1: GGAATAGGTGGAAAAGCG
DNA 2: CGCTTTTCCACCTATTCC
B31: R3-18-11T (dsDNA)
DNA 1: GGAATAGGTGTAAAAGCC
DNA 2: GGCTTTTACACCTATTCC
B32: R3-18-14G (dsDNA)
DNA 1: GGAATAGGTGGAAGAGCC
DNA 2: GGCTCTTCCACCTATTCC
B33: R3-18-18A (dsDNA)
DNA 1: GGAATAGGTGGAAAAGCA
DNA 2: TGCTTTTCCACCTATTCC
B34: R3-18-8A (dsDNA)
DNA 1: GGAATAGATGGAAAAGCC
DNA 2: GGCTTTTCCATCTATTCC
B35: R11-18 (dsDNA)
DNA 1: AGAACACGCCGAACGGCC
DNA 2: GGCCGTTCGGCGTGTTCT
B36: R0-18 (dsDNA)
DNA 1: TGCTCGATCTGGCTATCC
DNA 2: GGATAGCCAGATCGAGCA
B37: R10-18 (dsDNA)
DNA 1: TGCTACGGTAGAACACGC
DNA 2: GCGTGTTCTACCGTAGCA
B38: R4-18-2 (dsDNA)
DNA 1: GTGGAAAAGCCAGAAACA
DNA 2: TGTTTCTGGCTTTTCCAC
B39: R4-18-3 (dsDNA)
DNA 1: GGTGGAAAAGCCAGAAAC
DNA 2: GTTTCTGGCTTTTCCACC
B40: R4-18+3 (dsDNA)
DNA 1: AAAGCCAGAAACAGTGGG
DNA 2: CCCACTGTTTCTGGCTTT
B41: R4-18+4 (dsDNA)
DNA 1: AAGCCAGAAACAGTGGGA
DNA 2: TCCCACTGTTTCTGGCTT

Biological target: T1, ParB 65-139 (RHH domain)
Assay: ITC

B1 and B2 are within error of each other in Kd: 0.046 ± 0.012 µM for the first, 0.044 ± 0.021 µM for the second.

B3 and B4 are within error of each other in Kd: 0.036 ± 0.009 µM for the first, 0.022 ± 0.009 µM for the second.

Compared with B5, B6 is 2-fold lower in Kd: 0.032 ± 0.006 µM for the first, 0.016 ± 0.006 µM for the second. The second binds more tightly here.

B7 and B8 are the same in Kd: 0.056 ± 0.011 µM for the first, 0.056 ± 0.012 µM for the second.

Compared with B9, B10 is 12-fold higher in Kd: 0.03 ± 0.008 µM for the first, 0.365 ± 0.057 µM for the second.

Compared with B12, B13 is 1.5-fold lower in Kd: 0.088 ± 0.012 µM for the first, 0.057 ± 0.016 µM for the second.

B14 and B15 are within error of each other in Kd: 0.032 ± 0.008 µM for the first, 0.046 ± 0.008 µM for the second.

Going from B16 to B17, the Kd rises from 0.017 ± 0.006 µM to 0.058 ± 0.031 µM (3.4-fold).

B18 and B19 are within error of each other in Kd: 0.035 ± 0.011 µM for the first, 0.03 ± 0.006 µM for the second.

B20 and B21 are within error of each other in Kd: 0.073 ± 0.022 µM for the first, 0.064 ± 0.015 µM for the second.

Compared with B22, B23 is 4.3-fold lower in Kd: 0.143 ± 0.031 µM for the first, 0.033 ± 0.01 µM for the second. The second binds more tightly here.

First: B24
Second: B25
The Kd of the first is 2.3-fold higher: 0.046 ± 0.011 µM for the first, 0.02 ± 0.007 µM for the second. The second binds more tightly here.

First: B26
Second: B27
The Kd of the first is 4.7-fold lower: 0.018 ± 0.002 µM for the first, 0.084 ± 0.013 µM for the second.

Compared with B28, B29 is 2.5-fold lower in Kd: 0.203 ± 0.043 µM for the first, 0.081 ± 0.008 µM for the second.

Going from B30 to B31, the Kd falls from 0.07 ± 0.017 µM to 0.041 ± 0.009 µM (1.7-fold).

B32 and B33 are within error of each other in Kd: 0.042 ± 0.009 µM for the first, 0.046 ± 0.01 µM for the second.

Work on B34 yielded a Kd of 0.03 ± 0.007 µM.

B11: no binding.

Biological target: T1, ParB 65-139 (RHH domain)
Assay: ITC
Remark: another data set of the same source

B35: no binding.
B36: no binding.
B37: no binding.

Biological target: T1, ParB 65-139 (RHH domain)
Assay: EMSA

B38: binds.
B39: binds.
B40: binds.
B41: binds.
